From patent US20110065632A1, “PHARMACEUTICAL COMPOSITIONS OF SOMATOSTATIN-DOPAMINE CONJUGATES” (priority 2008, published 2011)
In brackets after ≈: the same amount, converted by molar mass.

How the values were obtained:
hUTII = target: T1, hUTII (Homo sapiens, UniProt Q9UKP6); test: hUTII inhibition constant; format: binding; settings: read-out: hUTII Ki
T1 sequence (Q9UKP6 1-389): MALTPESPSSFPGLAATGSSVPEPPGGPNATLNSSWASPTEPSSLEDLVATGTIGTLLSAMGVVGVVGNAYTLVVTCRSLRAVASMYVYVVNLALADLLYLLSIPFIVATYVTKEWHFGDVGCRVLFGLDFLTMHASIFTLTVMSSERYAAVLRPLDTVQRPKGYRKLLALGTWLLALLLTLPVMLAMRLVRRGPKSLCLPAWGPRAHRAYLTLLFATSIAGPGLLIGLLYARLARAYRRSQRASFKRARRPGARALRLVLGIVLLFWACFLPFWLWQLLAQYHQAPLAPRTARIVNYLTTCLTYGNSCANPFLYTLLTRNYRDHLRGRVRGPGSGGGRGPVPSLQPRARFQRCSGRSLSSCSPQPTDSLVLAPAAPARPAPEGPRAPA
Procedure: Using the discussed assays, the inhibition constants (Ki) for the five human somatostatin receptors (hSSTR1-hSSTR5) and the dopamine-2 receptor (hUTII and hDA2) were measured for the exemplified somatostatin-dopamine conjugates, as follows: […]

sst2 = target: T2, sst2 (Homo sapiens, UniProt P30874); test: cAMP Responsive Element-Luciferase reporter gene assay, sst2-monotransfected HEK-293 cells; format: cell-based; settings: read-out: IC50 value of cAMP inhibition
T2 construct: expressed in transfected cells; host or cells: HEK-293, transient
T2 sequence (P30874 whole entry): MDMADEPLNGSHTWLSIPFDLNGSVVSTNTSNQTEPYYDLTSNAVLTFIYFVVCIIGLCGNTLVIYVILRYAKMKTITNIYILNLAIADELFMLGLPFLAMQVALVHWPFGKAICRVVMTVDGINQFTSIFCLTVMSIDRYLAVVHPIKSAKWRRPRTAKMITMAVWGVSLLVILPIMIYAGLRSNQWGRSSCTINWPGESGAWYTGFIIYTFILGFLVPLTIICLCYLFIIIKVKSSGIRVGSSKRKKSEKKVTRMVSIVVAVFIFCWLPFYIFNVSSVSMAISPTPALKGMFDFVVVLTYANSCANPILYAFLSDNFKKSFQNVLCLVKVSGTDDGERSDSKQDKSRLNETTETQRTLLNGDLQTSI
Procedure: A cAMP Responsive Element-Luciferase reporter gene assay in HEK-293 cells was used in this assay, wherein said HEK-293 cells were transiently transfected with D2 and/or sst2 cDNA. […] In sst2-monotransfected cells, the IC50 value of cAMP inhibition of Example 1 was 0.04 nM.

[1] = Solubility of Example 1 at various concentrations of DMA and PEG400; format: physicochemical
Procedure: A compound that may advantageously be used to practice the invention can be tested to determine its solubility at different DMA and PEG400 concentrations using the following procedure.
To about 1 mg of Example 1 were added increasing volumes of the above solvents or buffers. When a soluble volume was reached, the concentration was calculated by weight/volume. When Example 1 was not soluble, the solution was centrifuged and the supernatant was analyzed by HPLC to determine the concentrations. The determined concentration is treated as the solubility of Example 1 in that solvent or buffer.
The solution pHs were checked. They were about pH 7. No further adjustment was done.

hDA2 = test: Dopamine-2 receptor radioligand binding assay; parameters: species or system human; settings: [3H]spiperone

With `CCCN1C[C@H](CSCC(=O)NCCCC[C@@H](NC(=O)CSC[C@@H]2C[C@@H]3c4cccc5[nH]cc(c45)C[C@H]3N(CCC)C2)C(=O)N[C@H]2CSSC[C@@H](C(=O)N[C@H](C(N)=O)[C@@H](C)O)NC(=O)[C@H](CC)NC(=O)[C@H](CCCCN)NC(=O)[C@@H](Cc3c[nH]c4ccccc34)NC(=O)[C@H](Cc3ccc(O)cc3)NC2=O)C[C@@H]2c3cccc4[nH]cc(c34)C[C@H]21` [Example 1, Dop2-DLys(Dop2)-cyclo[Cys-Tyr-DTrp-Lys-Abu-Cys]-Thr-NH2] the Ki (hUTII) was 509 nM, the IC50 (sst2) was 0.04 nM and the solubility ([1]; 5% DMA in PBS, PBS pH 7, 5% DMA, by HPLC) was 130 µg/mL (≈ 76.7 µM). For the same compound, the solubility ([1]; 5% DMA in water, Water pH 7, 5% DMA) was greater than 100000 µg/mL, the solubility ([1]; 5% PEG400 in PBS, PBS pH 7, 5% PEG400, by HPLC) was 50 µg/mL (≈ 29.5 µM) and the solubility ([1]; 5% PEG400 in water, Water pH 7, 5% PEG400) was greater than 50000 µg/mL. The solubility ([1]; 10% DMA in PBS, PBS pH 7, 10% DMA, by HPLC) was 480 µg/mL (≈ 283 µM), the solubility ([1]; 10% DMA in water, Water pH 7, 10% DMA) was greater than 100000 µg/mL and the solubility ([1]; 10% PEG400 in PBS, PBS pH 7, 10% PEG400, by HPLC) was 330 µg/mL (≈ 195 µM). For the same compound, the solubility ([1]; 10% PEG400 in water, Water pH 7, 10% PEG400) was greater than 50000 µg/mL, the solubility ([1]; 20% DMA in PBS, PBS pH 7, 20% DMA, by HPLC) was 780 µg/mL (≈ 460 µM) and the solubility ([1]; 20% DMA in water, Water pH 7, 20% DMA) was greater than 100000 µg/mL. The solubility ([1]; 20% PEG400 in PBS, PBS pH 7, 20% PEG400, by HPLC) was 750 µg/mL (≈ 443 µM), the solubility ([1]; 20% PEG400 in water, Water pH 7, 20% PEG400) was greater than 50000 µg/mL and the solubility ([1]; 30% DMA in PBS, PBS pH 7, 30% DMA, by HPLC) was 4200 µg/mL (≈ 2480 µM). It also gave a solubility ([1]; 30% DMA in water, Water pH 7, 30% DMA) greater than 100000 µg/mL, a solubility ([1]; 30% PEG400 in PBS, PBS pH 7, 30% PEG400, by HPLC) of 2980 µg/mL (≈ 1760 µM) and a solubility ([1]; 30% PEG400 in water, Water pH 7, 30% PEG400) greater than 50000 µg/mL. It also gave a solubility ([1]; 40% DMA in PBS, PBS pH 7, 40% DMA) greater than 50000 µg/mL, a solubility ([1]; 40% DMA in water, Water pH 7, 40% DMA) greater than 100000 µg/mL and a solubility ([1]; 40% PEG400 in PBS, PBS pH 7, 40% PEG400, by HPLC) of 3500 µg/mL (≈ 2070 µM). For the same compound, the solubility ([1]; 40% PEG400 in water, Water pH 7, 40% PEG400) was greater than 50000 µg/mL, the solubility ([1]; PBS (0% DMA), PBS pH 7, 0% DMA, by HPLC) was 40 µg/mL (≈ 23.6 µM) and the solubility ([1]; water (0% DMA), Water pH 7, 0% DMA, by HPLC) was 860 µg/mL (≈ 508 µM). The “Solubility in water based versus PBS based solvents” value ([1]; water vs PBS) was “much more soluble in water based solvents than in PBS based solvents” and the Ki (hDA2) was 15.8 nM.
